Article PMC5807052, “Robo1 Forms a Compact Dimer-of-Dimers Assembly” (Structure(London, England:1993), 2018)
Several values for one entry are separate records, joined by “and”; a condition that tells them apart may be missing. Identical values can stand only once.

Tests used:
[1] = biological target: the molecule itself; test: negative-stain EM reconstruction; GraFix-stabilised sample (fraction 12), ammonium molybdate stain, 100 kV; 3D map with D2 symmetry, 16 Å (FSC 0.143), filtered to 20 Å
[2] = biological target: the molecule itself; test: SEC-MALS; Superdex S200 HR 10/30, 200 mM NaCl, 20 mM Tris pH 7.5; 55 ul of Robo1 ECDa at 2.5 mg/ml from peak 1 of the SEC
[3] = biological target: the molecule itself; test: SEC; Superdex S200, 200 mM NaCl, 20 mM Tris pH 7.5; self-association of Robo1 ECD

B1: Robo1 ECDb (human Robo1 whole ectodomain, residues 61-864) (domain or fragment, UniProt Q9Y6N7-1 61-864, looked up)
chain: LRQEDFPPRIVEHPSDLIVSKGEPATLNCKAEGRPTPTIEWYKGGERVETDKDDPRSHRMLLPSGSLFFLRIVHGRKSRPDEGVYVCVARNYLGEAVSHNASLEVAILRDDFRQNPSDVMVAVGEPAVMECQPPRGHPEPTISWKKDGSPLDDKDERITIRGGKLMITYTRKSDAGKYVCVGTNMVGERESEVAELTVLERPSFVKRPSNLAVTVDDSAEFKCEARGDPVPTVRWRKDDGELPKSRYEIRDDHTLKIRKVTAGDMGSYTCVAENMVGKAEASATLTVQEPPHFVVKPRDQVVALGRTVTFQCEATGNPQPAIFWRREGSQNLLFSYQPPQSSSRFSVSQTGDLTITNVQRSDVGYYICQTLNVAGSIITKAYLEVTDVIADRPPPVIRQGPVNQTVAVDGTFVLSCVATGSPVPTILWRKDGVLVSTQDSRIKQLENGVLQIRYAKLGDTGRYTCIASTPSGEATWSAYIEVQEFGVPVQPPRPTDPNLIPSAPSKPEVTDVSRNTVTLSWQPNLNSGATPTSYIIEAFSHASGSSWQTVAENVKTETSAIKGLKPNAIYLFLVRAANAYGISDPSQISDPVKTQDVLPTSQGVDHKQVQRELGNAVLHLHNPTVLSSSSIEVHWTVDQQSQYIQGYKILYRPSGANHGESDWLVFEVRTPAKNSVVIPDLRKGVNYEIKARPFFNEFQGADSEIKFAKTLEEAPSAPPQGVTVSKNDGNGTAILVSWQPPPEDTQNGMVQEYKVWCLGNETRYHINKTVDGSTFSVVIPFLVPGIRYSVEVAASTGAGSGVKS
notes: Robo1, human, whole ectodomain construct ECDb, residues 61-864 of NP_002932; Cloned into a modified pTT3 vector that encodes a signal peptide and a C-terminal hexa-histidine tag; also called pTT3_Robo1_ECDb; source: HEK-293T, transient expression, secreted, purified (Ni-sepharose, SEC Superdex S200)
binding result [1]: binds

B2: Robo1 ECDa (human Robo1 ectodomain, residues 61-853) (domain or fragment, UniProt Q9Y6N7-1 61-853, looked up)
chain: LRQEDFPPRIVEHPSDLIVSKGEPATLNCKAEGRPTPTIEWYKGGERVETDKDDPRSHRMLLPSGSLFFLRIVHGRKSRPDEGVYVCVARNYLGEAVSHNASLEVAILRDDFRQNPSDVMVAVGEPAVMECQPPRGHPEPTISWKKDGSPLDDKDERITIRGGKLMITYTRKSDAGKYVCVGTNMVGERESEVAELTVLERPSFVKRPSNLAVTVDDSAEFKCEARGDPVPTVRWRKDDGELPKSRYEIRDDHTLKIRKVTAGDMGSYTCVAENMVGKAEASATLTVQEPPHFVVKPRDQVVALGRTVTFQCEATGNPQPAIFWRREGSQNLLFSYQPPQSSSRFSVSQTGDLTITNVQRSDVGYYICQTLNVAGSIITKAYLEVTDVIADRPPPVIRQGPVNQTVAVDGTFVLSCVATGSPVPTILWRKDGVLVSTQDSRIKQLENGVLQIRYAKLGDTGRYTCIASTPSGEATWSAYIEVQEFGVPVQPPRPTDPNLIPSAPSKPEVTDVSRNTVTLSWQPNLNSGATPTSYIIEAFSHASGSSWQTVAENVKTETSAIKGLKPNAIYLFLVRAANAYGISDPSQISDPVKTQDVLPTSQGVDHKQVQRELGNAVLHLHNPTVLSSSSIEVHWTVDQQSQYIQGYKILYRPSGANHGESDWLVFEVRTPAKNSVVIPDLRKGVNYEIKARPFFNEFQGADSEIKFAKTLEEAPSAPPQGVTVSKNDGNGTAILVSWQPPPEDTQNGMVQEYKVWCLGNETRYHINKTVDGSTFSVVIPFLVPGIRYSVEVA
notes: Robo1, human, ectodomain construct ECDa, residues 61-853 of NP_002932; lacks the last beta-strand of Fn3; Cloned into a modified pTT3 vector that encodes a signal peptide and a C-terminal hexa-histidine tag; also called pTT3_Robo1_ECDa; source: HEK-293T, transient expression, secreted, purified (Ni-sepharose, SEC Superdex S200)
stoichiometry N [2]: 1
stoichiometry N [3]: 4 and 2
